Results: the supplement of paper PMC10567573

B1: TFE3 (parent)
chain: FHLGLEDILMEEEEGVVGGLSGGA
B2: ADD1 (parent)
chain: FASDGDSGTCSPLRHSFQKQQREK

Variants of: B1
Test: protein stability index of a GFP-peptide fusion (GPS, HEK-293T) (PSI 1-6); higher = more stable
Details: c terminus: a fixed tail appended
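Note: lentivirally expressed fusions sorted by FACS into six bins by GFP to DsRed ratio, PSI derived from sequencing read proportions per bin multiplied by bin number.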

Protein stability index of substitutions, site by site:
V16: I 4.12; M 3.58; L 2.77; G 3.97; N 3.68; D 4.07; Q 4.29; F 2.83; E 4.3; P 3.08; A 3.87; C 4.07; H 3.76
H2: L 3.46; N 4.84; E 3.95; T 4.23; M 4.29; C 3.96; V 2.75; Y 3.56; P 4.26; W 2.94; K 4.38; S 4.27; D 4.81; A 4.12; G 4.41; I 2.52; R 4.16; F 3.15; Q 4.44
L9: P 4.21; D 4; I 3.7; V 4.11; S 3.69; R 4.5; F 3.29; E 4.57; C 4.06; Y 3.87; N 4.33; W 2.66; H 4.08; G 4.43; M 4.1; A 4.22; K 4.17; Q 4.39; T 4.37
M10: H 3.58; R 3.23; G 4.02; K 3.94; N 3.23; C 3.83; I 3.81; E 4.27; L 3.44; A 4; Y 3.62; V 3.83; T 3.88; F 3.83; S 4.08; P 4.18; Q 4.34; D 4.13; W 3.57
I8: A 4.33; N 4.25; Y 3.99; E 4.72; T 3.88; S 4.28; M 3.58; V 4.08; F 3.17; C 4.03; L 3.78; G 4.2; D 4.59; W 3.24; P 4.89; K 4.31; H 4.01; Q 4.28; R 3.93
E11: A 3.08; R 3.33; L 2.2; N 3.11; M 1.82; V 2.67; W 2.57; K 3.35; I 2.08; F 2.09; G 2.61; Y 2.38; Q 2.91; D 3.66; C 2.6; P 2.7; T 2.97; S 2.95; H 2.73
L3: K 4.49; Y 3.56; V 4.14; C 2.34; S 3.5; D 5.27; T 4.5; P 4.44; I 4.07; A 4.52; W 2.45; F 3.92; M 3.92; E 5.06; N 4.17; Q 4.22; R 4.14; H 4.32; G 3.44
L5: K 3.76; R 4.04; P 3.59; E 4.96; N 3.85; D 4.38; M 3.46; F 3.16; V 4.53; T 4.23; Q 4.46; W 4.21; Y 3.21; H 3.91; I 3.7; G 4.52; C 4.36; S 4.37; A 4.62
G15: N 3.84; F 2.42; D 4.19; E 4.39; R 4.03; Y 3.04; Q 4.23; W 2.3; T 3.51; P 3.59; L 3.1; M 3.05; A 4.1; I 2.9; V 3.64; S 3.92; K 4.11; H 3.25; C 3.24
F1: G 4.95; D 5.21; N 5.56; L 4.36; H 5.11; A 5.2; S 4.96; V 4.56; K 5.06; T 4.02; I 4.57; E 4.53; P 4.88; W 4.09; Q 5.15; C 4.89; M 4.85; Y 4.24; R 4.44
G4: R 2.5; Q 3.54; Y 1.86; W 2.67; P 3.05; M 2.5; E 4.89; K 2.23; V 2.13; F 2.01; C 2.67; S 3.94; A 2.97; L 2.46; D 3.99; I 2.1; T 3.08; H 2.94; N 3.48
E14: T 3.25; N 2.72; Q 2.98; R 3.55; S 2.83; V 2.53; Y 2.39; K 3.34; P 3.53; W 1.43; F 1.78; M 2.27; C 2.73; G 2.94; A 3.17; I 2.22; H 2.54; D 3.82; L 2.67
E6: H 2.86; Q 3.31; M 1.93; S 2.82; W 2.02; P 3.02; G 2.58; I 1.88; N 2.73; T 3.04; C 2.55; A 2.67; L 3.26; D 3.58; V 2.34; Y 2.31; K 2.68; R 3.3; F 2.33
E13: C 2.16; G 2.58; P 2.41; V 2.46; H 3.19; A 2.83; W 2.18; N 3.55; Y 2.11; D 3.3; M 2.15; Q 3.4; S 3.34; F 1.84; K 3.41; I 1.88; L 2.37; R 3.1; T 3.34
D7: I 2.25; G 3.54; Q 3.19; K 2.77; R 2.16; M 1.65; E 3.56; P 3.5; T 3; C 2.34; Y 1.57; F 2.28; H 2.88; S 3.31; V 2.89; A 2.34; L 2.16; N 3.04
E12: Y 2.63; D 3.77; P 2.43; R 2.47; W 1.76; V 1.74; K 3.2; T 3.72; M 2.29; H 3.09; A 2.6; N 3.01; F 2.14; G 3.02; S 3.29; I 2.51; Q 3.47; C 2.83

Variants of: B2
Test: as above
Details: c terminus: a fixed tail appended

Protein stability index, by site and new letter:
K24: T 3.88; G 3.41; H 3.25; L 3.15; V 3.13; I 3.17; A 2.92; Q 3.82; D 3.83; R 3.14; N 3.57; F 2.96; M 2.46; Y 2.83; C 3.41; E 4.01; P 3.42; S 3.4; W 3.08
R22: Y 4.09
E23: Y 3.25; V 3.58; N 3.6; R 3.79; T 3.67; K 4.34; F 2.74; H 3.66; W 2.94; L 3.57; P 3.29; I 2.76; C 3.37; S 3.66; Q 4.04; A 3.7; D 3.11; G 3.21
